In US20100021384A1 (INSTITUT PASTEUR, published 2010):

How the values were obtained:
[1] = molecular target: T1, murine GFAP (in murine brain extracts and mouse brain astrocytes) (murine, UniProt P03995 1-430); test: Western blot of murine brain extracts
T1 construct: Endogenous intracellular protein; identified on blots by the 46 kDa band size and in tissue by astrocyte labelling; also called 46 Kda band
Method: Murine brain proteins (300 mg) were extracted in a potter with 600 μl of NuPage LDS sample buffer (Invitrogen) and kept for […] at 70° C. An aliquot was diluted 1:10 (v/v) with the same sample buffer then treated at 70° C. for 10 min. Following separation by polyacrylamide gel electrophoresis (PAGE) using NuPAGE Novex 4-12% Bis-tris gel (Invitrogen), semi-dry transfer onto Hybond-C (Amersham) and western blotting were carried out using the Xcell II blot module (Invitrogen). Prior to the immunochemical reaction, membranes were blocked in a 4% skimmed milk solution. […] Finally, peroxidase activity was visualized using a chemiluminescent kit (Amersham).
The specificity of the different VHHs was tested by ELISA and by Western blot. All the VHHs were specific for GFAP by ELISA (FIG. 5) and could detect at least 40 ng of protein.

[2] = molecular target: T2, GFAP (glial fibrillary acidic protein) from normal human brain (human, UniProt P14136 1-432); test: competition ELISA in solution (Friguet method), GFAP in solution, GFAP-coated plate
T2 construct: Purchased protein purified from human brain; coated on ELISA plates and used in solution for the KD determination; also called hGFAP
Method: (§1) The binding affinity of VHHs was determined as described by Friguet et al., 1985. Briefly, various concentrations of GFAP were incubated in solution overnight at 4° C. with a known quantity of VHH until equilibrium was reached. The VHH concentration had been determined by preliminary ELISA calibrations. 100 μl of solution was transferred to a well of a microtiter plate previously coated with GFAP and was incubated for 20 min at 4° C. The plates were washed with PBS-Tween 0.1%. VHHs were detected with rabbit anti-His tag antibodies (eBiosciences, San Diego, Calif.) followed by adding β-galactosidase-conjugated goat anti-rabbit Igs (Biosys, Compiègne, France) and 4-methylumbelliferyl β-D galactoside (Sigma Aldrich, Saint-Quentin Fallavier, France). Fluorescence was read at 460 nm, after excitation at 355 nm. KD was estimated from the slope of the regression curve obtained by plotting the reciprocal of the fraction of bound antibody versus the reciprocal of the molar concentration of antigen.

[3] = molecular target: T2, GFAP (glial fibrillary acidic protein) …; test: competition ELISA (Friguet method) after heating VHH at 75 C for 15 min and cooling at 4 C for 20 min
Method: as §1
The heat denaturation of VHH-E9 was adapted to the method described in Olichon et al., 2007. VHHs are re-suspended in PBS/NaCl 300 mM and are heated for 15 minutes at 75° C. then cooled down at 4° C. for 20 minutes. The binding affinity of VHHs was determined by ELISA as described in Example 2 above.

[4] = molecular target: T2, GFAP (glial fibrillary acidic protein) …; test: competition ELISA (Friguet method), GFAP

T2 sequence (P14136 whole entry): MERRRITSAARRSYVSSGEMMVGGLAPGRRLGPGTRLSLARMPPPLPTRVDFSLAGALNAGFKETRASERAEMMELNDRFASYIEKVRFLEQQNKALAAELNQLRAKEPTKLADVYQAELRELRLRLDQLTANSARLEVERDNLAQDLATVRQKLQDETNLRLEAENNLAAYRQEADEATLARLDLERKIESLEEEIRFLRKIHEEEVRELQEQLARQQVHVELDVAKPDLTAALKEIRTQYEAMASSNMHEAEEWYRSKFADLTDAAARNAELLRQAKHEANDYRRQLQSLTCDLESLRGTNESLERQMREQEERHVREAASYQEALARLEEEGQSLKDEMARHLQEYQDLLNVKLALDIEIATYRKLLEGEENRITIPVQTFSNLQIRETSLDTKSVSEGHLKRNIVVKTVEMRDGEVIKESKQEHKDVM
T1 sequence (P03995 whole entry): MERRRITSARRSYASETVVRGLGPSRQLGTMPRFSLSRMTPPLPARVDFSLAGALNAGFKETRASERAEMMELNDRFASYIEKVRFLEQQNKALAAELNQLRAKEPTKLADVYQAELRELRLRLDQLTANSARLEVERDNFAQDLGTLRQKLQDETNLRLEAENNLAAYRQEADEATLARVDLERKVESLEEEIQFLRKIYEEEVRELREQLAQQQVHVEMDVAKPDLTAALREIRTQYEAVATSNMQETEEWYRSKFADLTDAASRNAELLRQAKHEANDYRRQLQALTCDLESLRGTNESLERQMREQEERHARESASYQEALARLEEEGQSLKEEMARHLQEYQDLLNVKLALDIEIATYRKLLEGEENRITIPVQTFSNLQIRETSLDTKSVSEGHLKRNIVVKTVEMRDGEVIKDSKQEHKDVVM

| Binder | binding result [1] | Kd [2] [nM] | Kd [3] [nM] | Kd [4] [nM] | fold reduction of affinity against native VHH-E9 [4] [fold] |
| --- | --- | --- | --- | --- | --- |
| VHH-E9 (VHH, Alpaca VHH selected by ribosome display against human GFAP; expressed in E. coli periplasm from pET22 with a His-tag and purified by IMAC; same molecule; also called anti-GFAP VHH-E9; native VHH-E9; not shown: His-tag (His6) from pET22 expression) VHH: DVQLQVSGGGSVQPGGSLRLSCAASGFTFSNYAMYWLRQAPGKGIEWVSRIGPGGSHTEYADSVKGRFTISRDNAKNTLSLQMNSLKPEDTAVYYCAITQQGSGRGQGTQVTVSS | binds | 5.6 | 3.8 |  |  |
| VHH-E3 (VHH, Alpaca VHH selected by ribosome display against human GFAP; expressed in E. coli periplasm from pET22 with a His-tag and purified by IMAC; also called anti-GFAP VHH-E3; not shown: His-tag from pET22 expression) VHH: DVQLQVSGGGSVQPGGSLRLSCAAPGFTFSNYAMYWLRQAPGKGIEWVSRIGPGGSHTEYADSVKGRFAISRDNAKNTLSLQMNSLKPEDTAAYYCAITQQGSGRGRGTQVTVSS | binds |  |  |  |  |
| VHH-E9 SS-free (VHH, not shown: small tags and cut ends, VHH-E9 in which the disulfide-forming cysteines Cys 22 and Cys 96 were replaced by serine by site-directed mutagenesis; also called cysteine-free derivative of VHH-E9) VHH: DVQLQVSGGGSVQPGGSLRLSSAASGFTFSNYAMYWLRQAPGKGIEWVSRIGPGGSHTEYADSVKGRFTISRDNAKNTLSLQMNSLKPEDTAVYYSAITQQGSGRGQGTQVTVSSAAALEHHHHHH |  |  |  | 12 | 2 |
| VHH-A10 (VHH, Alpaca VHH selected by ribosome display against human GFAP; expressed in E. coli periplasm from pET22 with a His-tag and purified by IMAC; also called anti-GFAP VHH-A10; not shown: His-tag from pET22 expression) VHH: DVQLRASGGGLVQPGGSLRLSCAASGFTFSNYAMYWLRQAPGKGIEWVSRIGPGGSHTEYADSVKGRFTISRDNAKNTLSLQMNSLKPEDTAVYYCAITQQGSGRGQETQVTVSSAAALEHHHHHH | binds | 3.1 |  |  |  |
